Results on ten molecules are retold here after US20250269018A1, “COMBINED CANCER THERAPY WITH AN EPITHELIAL CELL ADHESION MOLECULE (EPCAM) INHIBITOR AND A HEPATOCYTE GROWTH FACTOR RECEPTOR (HGFR) INHIBITOR” (ACADEMIA SINICA, priority 2021, published 2025).

B5: EpCAM-V5 (full length, expressed in HEK293T cells) (other)
chain: QEECVCENYKLAVNCFVNNNRQCQCTSVGAQNTVICSKLAAKCLVMKAEMNGSKLGRRAKPEGALQNNDGLYDPDCDESGLFKAKQCNGTSMCWCVNTAGVRRTDKDTEITCSERVRTYWIIIELKHKAREKPYDSKSLRTALQKEITTRYQLDPKFITSILYENNVITIDLVQNSSQKTQNDVDIADVAYYFEKDVKGESLFHSKKMDLTVNGEQLDLDPGQTLIYYVDEKAPEFSMQGLKAGVIAVIVVVVIAVVAGIVVLVISRKKRMAKYEKAEIKEMGEMHRELNA
notes: also called exogenous EpCAM; not shown: V5 tag
B7: EpEX-His (extracellular domain of EpCAM, His-tagged) (ligand)
chain: QEECVCENYKLAVNCFVNNNRQCQCTSVGAQNTVICSKLAAKCLVMKAEMNGSKLGRRAKPEGALQNNDGLYDPDCDESGLFKAKQCNGTSMCWCVNTAGVRRTDKDTEITCSERVRTYWIIIELKHKAREKPYDSKSLRTALQKEITTRYQLDPKFITSILYENNVITIDLVQNSSQKTQNDVDIADVAYYFEKDVKGESLFHSKKMDLTVNGEQLDLDPGQTLIYYVDEKAPEFSMQGLK
notes: It was made in Expi293 cells and purified on Ni-NTA; also called soluble EpEX; secreted EpEX; not shown: His tag

In assay [1] the target is T1, HGFRECD-c-Myc (extracellular domain of HGFR with c-Myc tag, expressed in HEK293T cells) (UniProt P08581 25-932).
T1 construct: extracellular domain; also called HGFRECD-c-Myc-tag; not shown: c-Myc tag
T1 sequence (P08581 25-932): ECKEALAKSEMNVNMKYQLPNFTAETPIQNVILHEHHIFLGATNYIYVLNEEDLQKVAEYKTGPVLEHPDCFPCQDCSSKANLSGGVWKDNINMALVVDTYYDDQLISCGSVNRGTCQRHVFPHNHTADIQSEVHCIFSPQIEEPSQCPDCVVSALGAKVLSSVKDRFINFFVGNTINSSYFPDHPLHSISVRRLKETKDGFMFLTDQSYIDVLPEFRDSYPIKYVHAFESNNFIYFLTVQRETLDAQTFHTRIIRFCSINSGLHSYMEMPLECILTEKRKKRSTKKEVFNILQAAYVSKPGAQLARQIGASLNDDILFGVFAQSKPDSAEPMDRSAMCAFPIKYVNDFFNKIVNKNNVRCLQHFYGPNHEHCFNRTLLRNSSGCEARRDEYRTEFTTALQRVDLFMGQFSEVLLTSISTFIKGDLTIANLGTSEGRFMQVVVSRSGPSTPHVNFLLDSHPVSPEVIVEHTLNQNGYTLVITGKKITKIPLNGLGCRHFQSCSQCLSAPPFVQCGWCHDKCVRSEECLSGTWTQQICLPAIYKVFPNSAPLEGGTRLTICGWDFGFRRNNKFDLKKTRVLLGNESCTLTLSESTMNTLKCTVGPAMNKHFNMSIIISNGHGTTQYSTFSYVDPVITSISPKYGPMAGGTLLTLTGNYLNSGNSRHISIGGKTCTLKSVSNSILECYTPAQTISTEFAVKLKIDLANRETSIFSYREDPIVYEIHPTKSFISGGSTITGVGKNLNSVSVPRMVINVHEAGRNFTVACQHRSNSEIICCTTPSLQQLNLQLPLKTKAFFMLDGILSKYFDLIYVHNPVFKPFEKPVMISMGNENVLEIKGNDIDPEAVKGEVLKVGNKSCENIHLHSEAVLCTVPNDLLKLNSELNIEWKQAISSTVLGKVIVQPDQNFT
Put plainly: co-IP with anti-c-Myc from transfected HEK293T cells, Western blotting (FIG. 1G). On the technique in general: Immunoblotting shows a protein as a band on a membrane.

Assay [2] addresses T2, HGFR-His recombinant protein (human, UniProt P08581 25-932).
T2 construct: extracellular domain; also called HGFRECD-His recombinant protein; not shown: His tag
Description: ELISA, HGFR-His added to plates coated with mutant-Fc (1 µg/ml) (FIG. 1H). For orientation: An ELISA detects its analyte on a solid surface through an enzyme-linked reagent.

Assay [3] addresses T1, HGFRECD-c-Myc (extracellular domain of …). Put plainly: co-IP from transfected HEK293T cells, Western blotting (FIG. 1F).
Assay [4] concerns the target T3, endogenous HGFR (HCT116 and HT29 cells) (human, UniProt P08581 25-1390).
T3 construct: whole, on cells; also called c-MET; hepatocyte growth factor receptor
Put plainly: co-IP of endogenous proteins after DTSSP cross-linking, HCT116 and HT29 cells (FIG. 1A).

Assay [5] deals with T1, HGFRECD-c-Myc (extracellular domain of …). Put plainly: co-IP from HEK293T cells overexpressing EpCAM-V5 and HGFRECD-c-Myc (FIG. 1B).
The target in assay [6] is T2, HGFR-His recombinant protein. Description: ELISA, HGFR-His (2 µg/ml) on coated EpEX-Fc proteins (1 µg/ml) (FIG. 1H).
Another assay concerns the target T4, HGFR-Fc protein (human, UniProt P08581 25-932).
T4 construct: not shown: Fc
Put plainly: ELISA, EpEX-His (2 µg/ml) on coated HGFR-Fc (1 µg/ml) (FIG. 6F).

Assay [7] has as its target T1, HGFRECD-c-Myc (extracellular domain of …). Description: co-IP from transfected HEK293T cells (restated).
Assay [8] deals with B7. Description: ELISA on coated EpEX-His (1 µg/ml) (FIG. 7A).
Assay [9] deals with B5. Description: Western blotting, flow cytometry and immunofluorescence on transfected HEK293T cells (title of the legend, FIG. 8A-8C).
Assay [10] has as its target T5, EpCAM wild-type (expressed in HEK293T cells, FIG. 8D-8G) (human, UniProt P16422 24-314).
T5 sequence: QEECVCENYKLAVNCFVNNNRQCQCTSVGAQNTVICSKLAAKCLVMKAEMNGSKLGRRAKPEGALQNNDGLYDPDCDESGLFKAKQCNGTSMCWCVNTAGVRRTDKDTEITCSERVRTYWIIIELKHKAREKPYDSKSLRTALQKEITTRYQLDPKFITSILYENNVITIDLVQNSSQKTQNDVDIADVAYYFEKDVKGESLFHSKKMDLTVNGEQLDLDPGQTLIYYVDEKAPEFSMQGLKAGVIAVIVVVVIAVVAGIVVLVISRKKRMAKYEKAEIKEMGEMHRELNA
Description: immunofluorescence, flow cytometry and cellular ELISA on transfected HEK293T cells (FIG. 8E-8G). Background: Flow cytometry measures light scatter and fluorescence of single cells or particles in a stream.

Assay [11] has as its target B7. Description: ELISA on coated EpEX-His (1 µg/ml) (title of the legend, FIG. 7A).
Another assay relates to HCT116 cells. Description: Apoptosis assay, annexin V-FITC/PI double labeling, HCT116. The assay is classed as cell-based, human. To be noted: 100 μg/ml 24 h, FIG. 7B. On the procedure: (§1) FIGS. 7A to 7G. EpAb2-6 binds EpEX and induces apoptosis by F(ab′)2 and inhibits regulated intramembrane proteolysis (RIP) activation and HGFR signaling. (FIG. 7A) Binding affinity of IgG EpAb2-6 (mouse) and F(ab′)2 to EpEX-His (1 μg/ml) coated overnight was checked using ELISA (OD450). (FIG. 7B) HCT116 cells were treated with 100 μg/ml control IgG, Fc, or F(ab′)2 of EpAb2-6 for 24 h. The apoptotic and necrotic cells were quantified by fluorescein annexin V-FITC/PI double labeling. (FIG. 7C) HCT116 and HT29 cells were treated with 10 μg/ml control IgG, MT201, humanized EpAb2-6 (hEpAb2-6) or mouse hybridoma EbAb2-6 (mEpAb2-6) for 24 h. The apoptotic and necrotic cells were quantified by fluorescein annexin V-FITC/PI double labeling. (FIG. 7D) HCT116 cells were treated with 10 μg/ml control IgG, MT201, hEpAb2-6 or mEpAb2-6 for 16 h, followed by treatment with EpEX-His (50 nM) for 15 min. Levels of phosphorylated HGFR, AKT, and ERK, and (FIG. 7E) RIP proteins ADAM17 and presenilin 2 were examined by Western blotting. Anti-EpCAM antibody and crizotinib coordinately induces apoptosis in colon cancer cells. (FIG. 7F) HCT116 and HT29 cells were treated with 10 μg/ml NMIgG or EpAb2-6 and 4 μM HGFR inhibitor crizotinib for 24 h. The apoptotic and necrotic cells were quantified by fluorescein annexin V-FITC/PI double labeling. (FIG. 7G) HCT116 and HT29 cells were treated with 10 μg/ml NMIgG or EpAb2-6 and 10 μM HGFR inhibitor crizotinib. Cell invasion was assessed by a Transwell assay with matrigel after 24 h.
Cells were seeded and treated with 10 μg/ml mAb or inhibitor for 6 h; an unrelated mouse myeloma immunoglobulin used at appropriate dilution served as the IgG2a (Invitrogen #02-6200) isotype control. Apoptotic cells were detected using Annexin V-FITC and PI, and were analyzed using a flow cytometer (BD Immmunocytometry Systems). Early apoptosis was measured with the Annexin V-FITC Apoptosis Detection kit II (BD Pharmingen). Late apoptotic nuclei were detected with propidium iodide (PI) staining.

For another assay, the target named is T6, EpEX-His (Homo sapiens, UniProt P16422).
T6 construct: the soluble extracellular domain of EpCAM (EpEX); His; made in house; host or cells: Expi293
T6 sequence (P16422 24-265 limits assumed): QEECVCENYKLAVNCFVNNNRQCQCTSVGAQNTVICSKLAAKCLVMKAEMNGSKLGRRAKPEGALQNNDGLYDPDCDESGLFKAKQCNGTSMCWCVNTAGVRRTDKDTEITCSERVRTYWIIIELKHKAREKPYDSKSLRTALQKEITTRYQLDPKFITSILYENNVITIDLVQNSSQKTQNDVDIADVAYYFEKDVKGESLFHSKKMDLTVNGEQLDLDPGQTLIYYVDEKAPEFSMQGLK
Put plainly: ELISA binding to coated EpEX-His. As to conditions: EpEX-His 1 μg/ml coated; ELISA OD450; FIG. 7A. On the procedure: as §1, with “(FIG. 7G) HCT116 and HT29 cells were treated with 10 μg/ml NMIgG or EpAb2-6 and 10 μM HGFR inhibitor crizotinib.” left out

T2 sequence (P08581 25-932): as the sequence (P08581 25-932) above
T3 sequence (P08581 25-1390): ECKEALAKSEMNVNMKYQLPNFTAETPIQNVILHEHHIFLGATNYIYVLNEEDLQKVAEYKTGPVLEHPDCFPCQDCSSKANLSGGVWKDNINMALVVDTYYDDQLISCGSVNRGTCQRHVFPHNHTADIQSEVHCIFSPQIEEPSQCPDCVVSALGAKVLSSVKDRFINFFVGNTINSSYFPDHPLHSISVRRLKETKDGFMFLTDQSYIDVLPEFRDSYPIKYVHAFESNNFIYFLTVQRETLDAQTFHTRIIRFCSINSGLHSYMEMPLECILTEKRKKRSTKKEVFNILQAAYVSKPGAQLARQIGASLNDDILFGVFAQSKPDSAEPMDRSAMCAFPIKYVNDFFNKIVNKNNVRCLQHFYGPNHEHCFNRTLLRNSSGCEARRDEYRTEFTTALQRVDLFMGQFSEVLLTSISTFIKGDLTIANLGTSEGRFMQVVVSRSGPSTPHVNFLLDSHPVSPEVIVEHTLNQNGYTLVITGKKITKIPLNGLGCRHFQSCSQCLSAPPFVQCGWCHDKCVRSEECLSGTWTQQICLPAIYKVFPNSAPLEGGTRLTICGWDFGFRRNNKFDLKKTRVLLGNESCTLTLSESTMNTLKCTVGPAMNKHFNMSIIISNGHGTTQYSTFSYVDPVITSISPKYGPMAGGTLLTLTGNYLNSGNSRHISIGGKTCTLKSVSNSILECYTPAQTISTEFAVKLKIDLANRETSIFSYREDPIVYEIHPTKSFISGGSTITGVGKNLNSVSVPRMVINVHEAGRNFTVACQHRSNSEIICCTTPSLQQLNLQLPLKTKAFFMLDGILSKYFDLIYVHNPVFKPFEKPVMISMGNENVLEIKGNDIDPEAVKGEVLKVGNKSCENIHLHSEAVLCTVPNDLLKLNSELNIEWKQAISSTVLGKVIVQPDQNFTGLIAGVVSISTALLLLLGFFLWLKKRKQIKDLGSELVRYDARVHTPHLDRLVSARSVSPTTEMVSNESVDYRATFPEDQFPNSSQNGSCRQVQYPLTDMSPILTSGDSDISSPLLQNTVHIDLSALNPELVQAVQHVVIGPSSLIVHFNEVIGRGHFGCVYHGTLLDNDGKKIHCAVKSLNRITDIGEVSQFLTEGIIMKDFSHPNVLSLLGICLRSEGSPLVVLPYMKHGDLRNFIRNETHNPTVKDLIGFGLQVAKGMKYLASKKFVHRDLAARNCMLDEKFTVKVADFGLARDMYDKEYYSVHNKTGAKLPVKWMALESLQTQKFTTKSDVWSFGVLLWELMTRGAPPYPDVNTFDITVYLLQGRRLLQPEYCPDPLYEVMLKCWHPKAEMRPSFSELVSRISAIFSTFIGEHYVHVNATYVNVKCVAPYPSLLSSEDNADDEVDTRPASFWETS
T4 sequence (P08581 25-932): as the sequence (P08581 25-932) above

B1: EpEXΔEGFI+II-His (ligand)
chain: QEESKLAAKSERVRTYWIIIELKHKAREKPYDSKSLRTALQKEITTRYQLDPKFITSILYENNVITIDLVQNSSQKTQNDVDIADVAYYFEKDVKGESLFHSKKMDLTVNGEQLDLDPGQTLIYYVDEKAPEFSMQGLK
notes: EpEX lacking aa 27-59 and 66-135; also called EGF like-domain deletion mutant EpEX-His; soluble EpEX mutant protein; not shown: His tag
On to B1, for which the binding result in [1] is on record as “no binding”.

B2: EpEXΔEGFI+II-Fc (Fc fusion)
chain: QEESKLAAKSERVRTYWIIIELKHKAREKPYDSKSLRTALQKEITTRYQLDPKFITSILYENNVITIDLVQNSSQKTQNDVDIADVAYYFEKDVKGESLFHSKKMDLTVNGEQLDLDPGQTLIYYVDEKAPEFSMQGLK
notes: EpEX lacking aa 27-59 and 66-135, coated on ELISA plates at 1 µg/ml; also called EpEXΔEGFI+II mutant protein; EGF like-domain deletion mutant-Fc; not shown: Fc
Consider B2, for which, in assay [2], the binding result was “no binding (tested: 2 µg/ml)”.

B3: EpCAMΔEGFI+II-V5 (other)
chain: QEESKLAAKSERVRTYWIIIELKHKAREKPYDSKSLRTALQKEITTRYQLDPKFITSILYENNVITIDLVQNSSQKTQNDVDIADVAYYFEKDVKGESLFHSKKMDLTVNGEQLDLDPGQTLIYYVDEKAPEFSMQGLKAGVIAVIVVVVIAVVAGIVVLVISRKKRMAKYEKAEIKEMGEMHRELNA
notes: also called both domain-deleted mutants; not shown: V5 tag
For the molecule B3, the binding result in [3] was “no binding”.

B4: endogenous EpCAM (HCT116 and HT29 cells) (other)
chain: QEECVCENYKLAVNCFVNNNRQCQCTSVGAQNTVICSKLAAKCLVMKAEMNGSKLGRRAKPEGALQNNDGLYDPDCDESGLFKAKQCNGTSMCWCVNTAGVRRTDKDTEITCSERVRTYWIIIELKHKAREKPYDSKSLRTALQKEITTRYQLDPKFITSILYENNVITIDLVQNSSQKTQNDVDIADVAYYFEKDVKGESLFHSKKMDLTVNGEQLDLDPGQTLIYYVDEKAPEFSMQGLKAGVIAVIVVVVIAVVAGIVVLVISRKKRMAKYEKAEIKEMGEMHRELNA
notes: Endogenous protein of human colon cancer cell lines, immunoprecipitated from lysates; also called epithelial cell adhesion molecule
B4: in assay [4], the binding result is “binds”.

For the molecule B5, the binding result in assay [5] is reported as “binds”.

B6: EpEX-Fc (Fc fusion)
chain: QEECVCENYKLAVNCFVNNNRQCQCTSVGAQNTVICSKLAAKCLVMKAEMNGSKLGRRAKPEGALQNNDGLYDPDCDESGLFKAKQCNGTSMCWCVNTAGVRRTDKDTEITCSERVRTYWIIIELKHKAREKPYDSKSLRTALQKEITTRYQLDPKFITSILYENNVITIDLVQNSSQKTQNDVDIADVAYYFEKDVKGESLFHSKKMDLTVNGEQLDLDPGQTLIYYVDEKAPEFSMQGLK
notes: also called recombinant EpEX-Fc; not shown: Fc
Take B6: the binding result in assay [6] was “binds”.

With B7, the binding result (with HGFR-Fc protein; in [7]) was “binds” each time.

B8: F(ab′)2 of EpAb2-6 (antibody, V domains shown)
VH: VKLQESGPELKKPGETVKISCKASGYTFTDYSMHWVKQAPGKGLKWMGWINTETGEPTYADDFKGRFAFSLETSASTAYLQINNLKNEDTATYFCARTAVYWGQGTTVTVSS
VL: DIQMTQSPSSLSASLGERVSLTCRASQEISVSLSWLQQEPDGTIKRLIYATSTLDSGVPKRFSGSRSGSDYSLTISSLESEDFVDYYCLQYASYPWTFGGGTKLEIKR
notes: F(ab′)2 fragment of mouse EpAb2-6; also called divalent antibody fragments F(ab′)2 of EpAb2-6
On to B8, for which, in assay [8], the binding result is on record as “binds”.

B9: EpAb2-6 (mouse monoclonal IgG) (antibody, V domains shown)
VH: VKLQESGPELKKPGETVKISCKASGYTFTDYSMHWVKQAPGKGLKWMGWINTETGEPTYADDFKGRFAFSLETSASTAYLQINNLKNEDTATYFCARTAVYWGQGTTVTVSS
VL: DIQMTQSPSSLSASLGERVSLTCRASQEISVSLSWLQQEPDGTIKRLIYATSTLDSGVPKRFSGSRSGSDYSLTISSLESEDFVDYYCLQYASYPWTFGGGTKLEIKR
notes: Mouse hybridoma IgG; also called mouse EpAb2-6; mEpAb2-6
Consider B9, for which the binding result in [9], in [10] and in assay [11] was “binds” in each case.

B10: F(ab′)2 of EpAb2-6: divalent antibody fragments F(ab′)2 of EpAb2-6 (antibody, V domains shown)
VH: VKLQESGPELKKPGETVKISCKASGYTFTDYSMHWVKQAPGKGLKWMGWINTETGEPTYADDFKGRFAFSLETSASTAYLQINNLKNEDTATYFCARTAVYWGQGTTVTVSS
VL: DIQMTQSPSSLSASLGERVSLTCRASQEISVSLSWLQQEPDGTIKRLIYATSTLDSGVPKRFSGSRSGSDYSLTISSLESEDFVDYYCLQYASYPWTFGGGTKLEIKRADAAPTVS
Turning to B10, in the assay with HCT116 cells, the apoptosis entry is on record as “induce apoptosis in colon cancer cells”. The “binding to EpEX” value with EpEX-His is “bind to EpEX”.
